According to patent publication US20230348575A1:
Like-named read-outs stand apart in the source and are kept apart here.

Experiments:
[1] = target: RSV F peptide 51-66 presented to CD4+ T cells of BALB/c mice (RSV, A2 strain)
[2] = target: RSV F peptides F85-93 and F249-258 presented to CD8+ T cells of BALB/c mice (RSV, A2 strain)
[3] = target: RSV F peptide 51-66 presented to CD4+ T cells of BALB/c mice (RSV, A2 strain); remark: listed apart in the source
[4] = target: RSV F peptides F85-93 and F249-258 presented to CD8+ T cells of BALB/c mice (RSV, A2 strain); remark: listed apart in the source

Question: For “Splenic T cells of BALB/c mice vaccinated with A317 RNA (10 ug) with electroporation, day 49 (Example 7B, 10-1001) (cells without a defined receptor)”, which CD4+ CD8- splenic T cells: % cytokine-positive (TNFa+), intracellular cytokine staining [1] is on record?
Answer: 0.05%

Question: And the CD8+ CD4- splenic T cells: % cytokine-positive (IFNg+), intracellular cytokine staining [2]?
Answer: 0.85%

Question: What does the source list for “Splenic T cells of BALB/c mice vaccinated with A317 RNA formulated with CNE17, day 49 (Example 7B, 10-1001) (cells without a defined receptor)”?
Answer: CD4+ CD8- splenic T cells: % cytokine-positive (TNFa+), intracellular cytokine staining, 1 ug [1]: 0.05%; CD8+ CD4- splenic T cells: % cytokine-positive (IFNg+), intracellular cytokine staining, 1 ug [2]: 1.25%

Question: With “Splenic T cells of BALB/c mice vaccinated with A317 RNA in liposomes RV01(01), day 49 (Example 7B, 10-1001) (cells without a defined receptor)” as the substance, how does the CD4+ CD8- splenic T cells: % cytokine-positive (TNFa+), intracellular cytokine staining, 1 ug [1] read?
Answer: 0.09%

Question: What about the CD8+ CD4- splenic T cells: % cytokine-positive (IFNg+), intracellular cytokine staining, 1 ug [2] of the same substance?
Answer: 3.69%

Question: For “Splenic T cells of BALB/c mice vaccinated with A317 RNA in liposomes RV01(01), day 49 (Example 7C, 10-1018) (cells without a defined receptor)”, which CD4+ CD8- splenic T cells: % cytokine-positive (TNFa+), intracellular cytokine staining, 1 ug [3] is on record?
Answer: 0.09%

Question: And the CD8+ CD4- splenic T cells: % cytokine-positive (IFNg+), intracellular cytokine staining, 10 ug [4]?
Answer: 3.32%

Question: For “Splenic T cells of BALB/c mice vaccinated with VRPs expressing RSV-F (1E6 IU), day 49 (Example 7B, 10-1001) (cells without a defined receptor)”, which CD4+ CD8- splenic T cells: % cytokine-positive (TNFa+), intracellular cytokine staining [1] is on record?
Answer: 0.1%

Question: What about the CD8+ CD4- splenic T cells: % cytokine-positive (IFNg+), intracellular cytokine staining [2] of the same substance?
Answer: 3.48%

Question: For “Splenic T cells of BALB/c mice vaccinated with VRPs expressing RSV-F (1E6 IU), day 49 (Example 7C, 10-1018) (cells without a defined receptor)”, which CD4+ CD8- splenic T cells: % cytokine-positive (TNFa+), intracellular cytokine staining [3] is on record?
Answer: 0.07%

Question: What about the CD8+ CD4- splenic T cells: % cytokine-positive (IFNg+), intracellular cytokine staining [4] of the same substance?
Answer: 2.45%

Question: How did the CD4+ CD8- splenic T cells: % cytokine-positive (TNFa+), intracellular cytokine staining [1] turn out when “Splenic T cells of BALB/c mice vaccinated with naked A317 RNA (1 ug), day 49 (Example 7B, 10-1001) (cells without a defined receptor)” was run?
Answer: 0.03%

Question: What about the CD8+ CD4- splenic T cells: % cytokine-positive (IFNg+), intracellular cytokine staining [2] of the same substance?
Answer: 0.74%

Question: “Splenic T cells of BALB/c mice vaccinated with naked A317 RNA, day 49 (Example 7C, 10-1018) (cells without a defined receptor)” was tested. Which CD4+ CD8- splenic T cells: % cytokine-positive (TNFa+), intracellular cytokine staining, 1 ug [3] did it give?
Answer: 0.03%

Question: And the CD8+ CD4- splenic T cells: % cytokine-positive (IFNg+), intracellular cytokine staining, 1 ug [4]?
Answer: 1.68%

Question: Which results are given for “Splenic T cells of unvaccinated BALB/c mice, day 49 (Example 7B, 10-1001) (cells without a defined receptor)”?
Answer: CD4+ CD8- splenic T cells: % cytokine-positive (TNFa+), intracellular cytokine staining [1]: 0%; CD8+ CD4- splenic T cells: % cytokine-positive (IFNg+), intracellular cytokine staining [2]: 0.01%

Question: What does the source list for “Splenic T cells of unvaccinated BALB/c mice, day 49 (Example 7C, 10-1018) (cells without a defined receptor)”?
Answer: CD4+ CD8- splenic T cells: % cytokine-positive (TNFa+), intracellular cytokine staining [3]: 0.01%; CD8+ CD4- splenic T cells: % cytokine-positive (IFNg+), intracellular cytokine staining [4]: 0.01%
